Residue numbers refer to the chain shown, from its start.
T1: 10E8-GT10.2 epitope scaffold (designed scaffold 10E8-GT10.2 with …, N-linked glycosylation sites added (positions not given))
T1 chain: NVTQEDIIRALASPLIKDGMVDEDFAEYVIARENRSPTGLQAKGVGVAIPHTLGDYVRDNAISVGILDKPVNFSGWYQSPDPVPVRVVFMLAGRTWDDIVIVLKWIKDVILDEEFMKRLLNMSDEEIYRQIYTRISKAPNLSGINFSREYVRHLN

T2: 10E8-GT10.1 epitope scaffold (synthetic construct, circularly …, N-linked glycosylation sites added (positions not given))
T2 chain: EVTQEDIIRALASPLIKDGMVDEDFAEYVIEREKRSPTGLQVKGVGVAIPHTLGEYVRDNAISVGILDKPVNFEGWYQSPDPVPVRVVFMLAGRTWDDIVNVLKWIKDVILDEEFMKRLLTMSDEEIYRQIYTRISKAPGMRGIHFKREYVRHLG

T3: 10E8-B1 epitope scaffold (synthetic construct (resurfaced …))
T3 chain: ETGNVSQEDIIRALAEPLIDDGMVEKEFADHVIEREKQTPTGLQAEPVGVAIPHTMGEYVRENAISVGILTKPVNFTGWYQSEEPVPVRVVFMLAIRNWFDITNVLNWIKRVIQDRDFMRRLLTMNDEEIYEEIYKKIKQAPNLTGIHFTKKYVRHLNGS

B1: NHP-Comp_MPER-GT10v55_W21-04 (antibody, V domains shown)
VH: DVQLVESGGGLVKPGGSLRLSCVASDFTFSSYEMHWVRQAPGKGLEWVSLISESGDTTYYADSVKGRFTISRDNAKNSLFLQMNSLRAEDTAVYYCTRAITVFGVVITHFDYWGQGVLVPVSS
VL: QSALTQPPSVSKSLGQSVTISCTGTSSDIGGYYAVSWYQQHSGTAPRLLIYEVSKRPSGVSDRFSGSKSGNTASLTISGLQAEDEADYYCGSFRTGYTYIFGAGTRLTV
B2: NHP-Comp_MPER-GT10v55_W21-01 (antibody, V domains shown)
VH: QVQLQESGPGLVKPSETLSLTCAVSGGSFSSYWWGWIRQPPGKGLEWIGSIYGSSGSTEYNPSLKSRATISRDTSKNQFSLKLSSVTAADTAVYYCARVKAPEIFGVVITGYYFDYWGQGVLVTVSS
VL: SYELTQPLSVSVALGQMARITCGGNNIGRKYVYWYQQKPDQAPVLVIYEDSKRPSGIPERFAGSNSGNTATLTIDGAQARDEADYYCQVWDSSTAYIFGAGTRLTV
B3: NHP-Comp_MPER-GT10v55_W26-08 (antibody, V domains shown)
VH: QVTLKESGPALVKPTQTLTLTCTFSGFSISTTGTGVGWIRQPPGKALEWLATISWNDSKYYSTSLKSRLTISKDTSKNQVVLTFTNMDPVDTATYSCARVLQPTITTTNRFDVWGPGVLVTVSS
VL: SYDLTQPPSVSVSPGQTARITCGGDNIGSKYVHWYQQKPPQAPVLVIYYDTERPSGIPERFSGSKSGNTATLTISGVEAGDEADYYCQVWDSSSDHNVFGSGTKLTV
B4: MPER-070 (antibody, V domains shown)
VH: QVQLQESGPGLVKPSETLSLTCTVSGGSISSSSYYWGWIRQPPGKGLEWIGSIYYSGSTYYNPSLKSRVTISVDTSKNQFSLKLSSVTAADTAVYYCARHHPHAYDFWSGYYSERYYFDYWGQGTLVTVSS
VL: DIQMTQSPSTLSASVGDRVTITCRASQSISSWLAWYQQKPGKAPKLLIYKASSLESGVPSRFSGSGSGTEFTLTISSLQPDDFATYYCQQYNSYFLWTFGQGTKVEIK
B5: NHP-10E8_MPER-GT10v55_W21-04 (antibody, V domains shown)
VH: EVQLVESGGGLVQPGGSLRLSCVASGFTFSDYGFDWVRQAPGKGLEWVGFIRSKDYGGSTEYAASVKGRFTISRDDSKNTAYLQMTSLKAEDTAVYFCTRDLGFYNFWTGYYEVNRFDVWGAGVLVTVSS
VL: QPVLTQPTSLSASPGASARLTCTLRSGISVGSYRIFWYQQKPGSPPRYLLNYHTDSDNHQGSGVPSRFSGSKDASANAGILLISGLQSDDEADYYCMIWHNNACFFGGGTRLTV
B6: MPER-055 (antibody, V domains shown)
VH: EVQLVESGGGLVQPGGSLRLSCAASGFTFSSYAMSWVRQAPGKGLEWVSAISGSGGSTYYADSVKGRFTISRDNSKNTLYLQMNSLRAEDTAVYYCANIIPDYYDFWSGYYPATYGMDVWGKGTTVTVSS
VL: DIQMTQSPSSLSASVGDRVTITCRASQGIRNDLGWYQQKPGKAPKRLIYAASSLQSGVPSRFSGSGSGTEFTLTISSLQPEDFATYYCLQHNSYPLSFGGGTKVEIK
B7: MPER-068 (antibody, V domains shown)
VH: QVQLQESGPGLVKPSETLSLTCTVSGGSISSYYWSWIRQPPGKGLEWIGYIYYSGSTNYNPSLKSRVTISVDTSKNQFSLKLSSVTAADTAVYYCARSPSPYYDFWSGYFQETNWFDPWGQGTLVTVSS
VL: not shown
B8: NHP-Comp_MPER-GT10v55_W26-02 (antibody, V domains shown)
VH: QLQLQESGPGLVKPSETLSVTCAVSGGSISGGYGWSWIRQPPGKGLEWIGHIFDSFGNTYYNPSLKSRVTISTDTSKNQFSLKLSSVTAADTAVYYCARETVLGAGDYFDSWGQGVLVTVSS
VL: DIQMTQSPSSLSASVGDTVTITCRASQDINNYLAWYQQKPGKAPKPLIYHASYLESGVPSRFSGSGSGTDFTLTISSLQPEDFAIYYCQQHNAYPFTFGPGTKLDIK
B9: NHP-Comp_MPER-GT10v55_W26-11 (antibody, V domains shown)
VH: EVQLVESGGGLAKPGGSLRLSCAASGFTFSNYWMCWVRQAPGKGLEWISVINSVTSGTYYADSVKGRFTISRENAKNTLYLQMDRLRVEDTAVYYCAWGLGLTAPPVYWGQGVLVTVSS
VL: ETVVTQEPSLSVSPGGTVTLTCGLSSGSVSTSNYPSWYQQTPGQAPRTLVYRTNIRPSGVPDRFSGSILGNKAALTITGAQADDESDFYCLFYMGSGIWVFGGGTRLTV
B10: NHP-10E8_MPER-GT10v55_W3-20 (antibody, V domains shown)
VH: EVQLVESGGGLVQPGGSLRLSCAASGFSFSNYWMSWVRQAPGKGLEWVGFIKNKADGGTAAYAESVKGRFTISRDDSKNTLYLQMNSLKTEDTAVYFCARDLGRYNFWSAFYSQNRFDVWGPGVLVTVSS
VL: SYEVTQPPSVSVSPGQMARITCGGDNLGSKYVHWYQQKPAQAPVMVMYDDSERPSGIPERFSGSKSGNTATLTISGVEAGDEADYYCQVWDSSSDHPLFGGGTRLTV
B11: NHP-Comp_MPER-GT10v55_W21-08 (antibody, V domains shown)
VH: EVQLVESGGGLVQPGGSLRLSCAASGFTFSHYGLHWVRQAPGKGLEWVAVIWSDGNKKYYADSVKDRFTISRDNSKNMLYLQMNNLKLEDTAVYYCATYTYGDWGQGVLVTVSS
VL: B10 VL with V4L, A40P, M45L, M47I, H96N, P97W, L98V
B12: NHP-Comp_MPER-GT10v55_W21-07 (antibody, V domains shown)
VH: EVQLVESGGGLAKPGGSLRLSCAASGFTFSSYWMNWVRQTPGKGLEWISAINSGGGSTYYADSVKGRFTISRDNSKNTLSLQMNSLRAEDTAVYYCAKGYGLDSWGQGVVVTVSS
VL: QAAPTQPPSVSGSPGQSVTISCTGTSSDIGYYNAVSWYQQHPGKAPKLMIYEVSKRPSGVSDRFSGSKSGNTASLTISGLQAEDEADYYCSSYAGSNTFIFGAGTRLTV
B13: NHP-Comp_MPER-GT10v55_W21-03 (antibody, V domains shown)
VH: QMQLQESGPGLVKPSETLPLTCAVSGASISSNFWSWIRQAPGMGLEWIGRIYGNGGSTDYNPSLKSRVTISIDTSKNQFSLKLSSVTAADTAVYFCASSFLFRFDVWGPGVLVTVSS
VL: QSVLTQPPSASGAPGQSVTISCSGSSSNIGGNHVYWYQQLPGTAPKLLIYYSNQRPSGVPDRFSGSKSGTSASLAITGLRSEDEADYYCAAWDDSLSSYIFGAGTRLTV
B14: NHP-Comp_MPER-GT10v55_W26-10 (antibody, V domains shown)
VH: EVQLVESGGGLAKPGGSLRLSCVASGFRFSNYWMNWVRQTPGKGLEWISVINSGGVITYYADSVKGRFTISRDNSKNTLSLQMNSLRTEDTAVYYCARQSLDWGLDSWGQGVVVTVSS
VL: SSELTQDPAVSVALGQTVRITCQGDSLRNHYASWYQQKPGQAPVLVVYGNNNRPSGIPERFSGSRSGNTASLTITGAQVEDEADYYCDSWDSSGTHRVFGGGTRLTV
B15: NHP-Comp_MPER-GT10v55_W26-06 (antibody, V domains shown)
VH: QVQLVQSGAEVKQPGASVKVSCLASGYTFTSYSIHWLRQAHGQRLEWMGWINTATGNPTYTQGFKERFTFSMDTSITTAYLQISSLKTEDTAVYYCARLYRDFWGGYYASSLDVWGRGVLVTVSS
VL: SYDLTQPPSVSVSPGQTARITCGGENIGSEPVHWYQQKPPQAPLQVIYSDSERPSGIPERFSGSKSGNTATLTISGVEAGDEADYYCQVWDISSDHPYIFGAGTRLTV
B16: MPER-053 (antibody, V domains shown)
VH: EVQLVESGGGLVQPGRSLRLSCTASGFTFGDYAMSWFRQAPGKGLEWVGFIRSKAYGGTTEYAASVKGRFTISRDDSKSIAYLQMNSLKTEDTAVYYCTREGAYYDFWSGYLTKVYGMDVWGQGTTVTVSS
VL: not shown
B17: MPER-073 (antibody, V domains shown)
VH: QVQLQESGPGLVKPSQTLSLTCTVSGGSISSGGYYWSWIRQHPGKGLEWIGYIYYSGSTYYNPSLKSRVTISVDTSKNQFSLKLSSVTAADTAVYYCARDCAVYDFWSGYGPGGWFDPWGQGTLVTVSS
VL: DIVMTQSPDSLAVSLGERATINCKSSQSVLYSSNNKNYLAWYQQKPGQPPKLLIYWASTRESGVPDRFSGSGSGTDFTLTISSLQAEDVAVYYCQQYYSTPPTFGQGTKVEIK
B18: MPER-063 (antibody, V domains shown)
VH: QVQLVQSGAEVKKPGSSVKVSCKASGGTFSSYAISWVRQAPGQGLEWMGGIIPIFGTANYAQKFQGRVTITADESTSTAYMELSSLRSEDTAVYYCARGGTHYDFWSGYSDYYYGMDVWGKGTTVTVSS
VL: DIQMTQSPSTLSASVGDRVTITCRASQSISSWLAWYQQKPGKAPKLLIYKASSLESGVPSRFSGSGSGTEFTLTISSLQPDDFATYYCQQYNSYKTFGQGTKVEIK
B19: NHP-Comp_MPER-GT10v55_W21-02 (antibody, V domains shown)
VH: QVQLQESGPAVVKPSETLSLTCAVSGGSISSNNWWSWIRQSPGKGLEWIGGLYGSGGNTEYYPSLKSRVTISVDTSKNQFSLKLSSVTAADTAVYYCASPAPYYGRGYSFDAFDFWGQGLRVTVSS
VL: QSALTQPPSVSKSLGQSVTISCTGTSSDIGGYNGVSWYQQHSGTAPKLLIYDVNKRPSGVSDRFSGSKSGNTASLTISGLQAEDEADYYCCSYRGGSTYWVFGGGTRLTV
B20: MPER-072 (antibody, V domains shown)
VH: QVQLQESGSGLVKPSQTLSLTCAVSGGSISSGGYSWSWIRQPPGKGLEWIGYIYHSGSTYYNPSLKSRVTISVDRSKNQFSLKLSSVTAADTAVYYCARAGHNYDFWSGYYPVGGAFDIWGQGTMVTVSS
VL: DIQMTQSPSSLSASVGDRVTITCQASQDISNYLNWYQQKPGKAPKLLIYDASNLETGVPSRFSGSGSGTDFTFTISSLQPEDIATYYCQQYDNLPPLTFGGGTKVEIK
B21: NHP-Comp_MPER-GT10v55_W26-04 (antibody, V domains shown)
VH: QVQLQESGPGVVKPSETLSLTCAVSGDSISDSYWWSWIRQPPGKGLEWIGYIYGSSTNTNYNPSLKSRVTISKDTSKNQFSLKLSSVTAADTAVYYCARESRWLEEYPLNTFDYWGQGVLVTVSS
VL: DIVMTQTPLSLPVTPGEPASISCRSSQSLLDSYGYIHLHWYLQKPGQSPQLLIYLGSNRASGVPDRFSGSGSGTDFTLKISRVEAEDVGVYYCMQTLQTPRTFGQGTKVEIK
B22: MPER-071 (antibody, V domains shown)
VH: QVQLVQSGAEVKKPGASVKVSCKASGYTFTSYDINWVRQATGQGLEWMGWMNPNSGNTGYAQKFQGRVTMTRNTSISTAYMELSSLRSEDTAVYYCARGITYYDFWSGYYPTPYYFDYWGQGTLVTVSS
VL: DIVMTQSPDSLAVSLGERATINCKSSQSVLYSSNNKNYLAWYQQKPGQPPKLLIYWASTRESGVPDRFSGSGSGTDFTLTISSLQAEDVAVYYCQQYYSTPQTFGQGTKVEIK

Biological target: T1, 10E8-GT10.2 epitope scaffold

Point of comparison: B17, Kd 20 µM. Against it:
- B1 — 1300-fold lower, 0.0156 µM
- B2 — 7.6-fold lower, 2.63 µM
- B3 — 9200-fold lower, 0.00218 µM
- B4 — 1.5-fold lower, 13 µM
- B5 — far lower, 0.000115 µM
- B6 — within 1.5-fold, 22 µM
- B7 — 9.5-fold lower, 2.1 µM
- B8 — 6300-fold lower, 0.00318 µM
- B9 — 1600-fold lower, 0.0128 µM
- B10 — 4100-fold lower, 0.00482 µM
- B11 — 1300-fold lower, 0.0151 µM
- B12 — 3.6-fold lower, 5.51 µM
- B13 — 1900-fold lower, 0.0108 µM
- B14 — 270-fold lower, 0.0746 µM
- B15 — far lower, 0.000112 µM
- B16 — 2.5-fold lower, 7.9 µM
- B18 — 3-fold lower, 6.6 µM
- B19 — 2.9-fold lower, 6.84 µM
- B20 — within 1.5-fold, 16 µM
- B21 — 960-fold lower, 0.0208 µM

Biological target: T2, 10E8-GT10.1 epitope scaffold

Point of comparison: B22, Kd 6.4 µM. Against it:
- B4 — 1.6-fold lower, 4.1 µM
- B6 — 2.5-fold higher, 16 µM
- B7 — 9.1-fold lower, 0.7 µM
- B16 — 1.7-fold higher, 11 µM
- B17 — within 1.5-fold, 7.3 µM
- B18 — 1.6-fold lower, 4 µM
- B20 — 2-fold higher, 13 µM

Biological target: T3, 10E8-B1 epitope scaffold

Point of comparison: B10, Kd 4.27 µM. Against it:
- B5 — 5.4-fold higher, 22.9 µM

— paper PMC11147780, “Vaccination induces broadly neutralizing antibody precursors to HIV gp41” (Nature Immunology, 2024)
